Reference: ChEMBL document CHEMBL4342470, “Detection of Active Granzyme A in NK92 Cells with Fluorescent Activity-Based Probe” (J Med Chem, 2020)

B1: Granzyme A (Homo sapiens), P12544 (protein)
chain: MRNSYRFLASSLSVVVSLLLIPEDVCEKIIGGNEVTPHSRPYMVLLSLDRKTICAGALIAKDWVLTAAHCNLNKRSQVILGAHSITREEPTKQIMLVKKEFPYPCYDPATREGDLKLLQLMEKAKINKYVTILHLPKKGDDVKPGTMCQVAGWGRTHNSASWSDTLREVNITIIDRKVCNDRNHYNFNPVIGMNMVCAGSLRGGRDSCNGDSGSPLLCEGVFRGVTSFGLENKCGDPRGPGVYILLSKKHLNWIIMTIKGAV
B2: Granzyme K (Homo sapiens), P49863 (protein)
chain: MTKFSSFSLFFLIVGAYMTHVCFNMEIIGGKEVSPHSRPFMASIQYGGHHVCGGVLIDPQWVLTAAHCQYRFTKGQSPTVVLGAHSLSKNEASKQTLEIKKFIPFSRVTSDPQSNDIMLVKLQTAAKLNKHVKMLHIRSKTSLRSGTKCKVTGWGATDPDSLRPSDTLREVTVTVLSRKLCNSQSYYNGDPFITKDMVCAGDAKGQKDSCKGDSGGPLICKGVFHAIVSGGHECGVATKPGIYTLLTKKYQTWIKSNLVPPHTN

Key:
Conditions in all cases: Homo sapiens; call rule not given here
[1] = substrate: CC[C@H](C)[C@H](NC(C)=O)C(=O)NCC(=O)N1CCC[C@H]1C(=O)N[C@@H](CCCNC(=N)N)C(=O)Nc1ccc2c(CC(N)=O)cc(=O)oc2c1; assay: (§1) Substrate activity at Granzyme A (unknown origin) expressed in Pichia pastoris incubated for 30 mins by fluorescence based assay
[2] = substrate: CC(=O)N1Cc2ccccc2C[C@H]1C(=O)NCC(=O)N1C2CCCCC2C[C@H]1C(=O)N[C@@H](CCCNC(=N)N)C(=O)Nc1ccc2c(CC(N)=O)cc(=O)oc2c1; assay: as §1
[3] = substrate: CC(=O)N1Cc2ccccc2C[C@H]1C(=O)NCC(=O)N1C2CCCCC2C[C@H]1C(=O)N[C@@H](CCCNC(=N)N)C(=O)Nc1ccc2c(CC(N)=O)cc(=O)oc2c1; assay: Substrate activity at Granzyme K (unknown origin) expressed in Pichia pastoris incubated for 30 mins by fluorescence based assay

Protein | Km [1] | kcat [1] | kcat/Km [1] | Km [2] | kcat [2] | kcat/Km [2] | Km [3] | kcat [3] | kcat/Km [3]
B1 | 450 µM | 0.035 s⁻¹ | 78 M⁻¹ s⁻¹ | 87.4 µM | 0.27 s⁻¹ | 3100 M⁻¹ s⁻¹ | – | – | –
B2 | – | – | – | – | – | – | Not Active | Not Active | Not Active
